# Assay results: paper PMC11007443, “A selection and optimization strategy for single-domain antibodies targeting the PHF6 linear peptide within the tau intrinsically disordered protein” (The Journal of Biological Chemistry, 2024)
# Target: tau 2N4R (recombinant; 15N-labelled for NMR) (Homo sapiens, UniProt P10636-8)
# Test: cell-based or functional assay
# Conditions: not given
# Chain of tau 2N4R (recombinant; 15N-labelled for NMR) (P10636 other isoform, or with tags, fused parts or gaps): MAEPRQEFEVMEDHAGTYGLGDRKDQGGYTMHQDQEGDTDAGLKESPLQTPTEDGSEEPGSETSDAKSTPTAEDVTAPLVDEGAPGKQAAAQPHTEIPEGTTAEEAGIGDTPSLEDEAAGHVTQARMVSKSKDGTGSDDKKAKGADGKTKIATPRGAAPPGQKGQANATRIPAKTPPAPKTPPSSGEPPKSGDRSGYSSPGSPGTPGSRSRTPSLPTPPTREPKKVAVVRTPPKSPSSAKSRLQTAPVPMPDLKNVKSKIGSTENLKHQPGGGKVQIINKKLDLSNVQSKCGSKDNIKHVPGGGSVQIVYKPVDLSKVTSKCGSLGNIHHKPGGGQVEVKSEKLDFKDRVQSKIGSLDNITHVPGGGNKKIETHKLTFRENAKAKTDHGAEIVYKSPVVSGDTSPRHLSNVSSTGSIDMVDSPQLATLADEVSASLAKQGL
row,"heparin-induced tau 2N4R aggregation, thioflavin fluorescence intensity ratio between tau with VHH and tau alone; VHH:tau 0.2:1 (46.2%) and 0.5:1 (25%)",Binder
1,46.2%,"VHH Z70 (VHH, VHH Z70; also in PDB 7QCQ; also called parent VHH; source: E. coli BL21 (DE3), periplasm, purified (IMAC, SEC)) VHH: EVQLQASGGVFVQSGGSLRLSCAASGATSTFDGMGWFRQAPGKEREFVSAISYEQGSYTYYADSVKGRFTISRDNSKNMVYLQMNSLRAEDTATYYCAPAYEGDLYAFDSYGGQGTQVTVSS"

# Target: T1, biotinylated tau 2N4R (Homo sapiens, UniProt P10636-8, biotin (N-hydroxysuccimide-biotin conjugates, 5 M excess))
# T1 construct: tau protein, 2N4R isoform, NCBI NP_005901.2; Expressed from pET15b-tau; also called full-length tau; source: E. coli BL21 (DE3), purified (heating, cation exchange), then biotinylated
# T1 sequence (P10636 other isoform, or with tags, fused parts or gaps): as the sequence (P10636 other isoform, or with tags, fused parts or gaps) above
# Test: SPR; biotinylated tau 2N4R captured on a streptavidin chip (500 RU); VHHs as analytes, 0.125-2 uM, single-cycle kinetics; HBS-EP+ buffer; 1:1 Langmuir model; Kd calculated as koff/kon
# Conditions: both partners purified
Kd,koff,kon,Binder
147.8 ± 0.9 nM,0.00267 s⁻¹,18100 M⁻¹ s⁻¹,"VHH Z70 (VHH, VHH Z70; also in PDB 7QCQ; also called parent VHH; source: E. coli BL21 (DE3), periplasm, purified (IMAC, SEC)) VHH: EVQLQASGGVFVQSGGSLRLSCAASGATSTFDGMGWFRQAPGKEREFVSAISYEQGSYTYYADSVKGRFTISRDNSKNMVYLQMNSLRAEDTATYYCAPAYEGDLYAFDSYGGQGTQVTVSS"
80.8 ± 1.5 nM,0.000882 s⁻¹,10900 M⁻¹ s⁻¹,"VHH Z70 mutant 5 (T96S) (VHH, as the chain of m1 (VHH Z70); also called Mut5; source: E. coli BL21 (DE3), periplasm, purified (IMAC, SEC)) VHH: EVQLQASGGVFVQSGGSLRLSCAASGATSTFDGMGWFRQAPGKEREFVSAISYEQGSYTYYADSVKGRFTISRDNSKNMVYLQMNSLRAEDTASYYCAPAYEGDLYAFDSYGGQGTQVTVSS"
61.2 ± 0.6 nM,0.00207 s⁻¹,33900 M⁻¹ s⁻¹,"VHH Z70 mutant 12 (S23C + G115E) (VHH, as the chain of m1 (VHH Z70); also called Mut12; source: E. coli BL21 (DE3), periplasm, purified (IMAC, SEC)) VHH: EVQLQASGGVFVQSGGSLRLCCAASGATSTFDGMGWFRQAPGKEREFVSAISYEQGSYTYYADSVKGRFTISRDNSKNMVYLQMNSLRAEDTATYYCAPAYEGDLYAFDSYGEQGTQVTVSS"
22.7 ± 0.5 nM,0.00242 s⁻¹,107000 M⁻¹ s⁻¹,"VHH Z70 mutant 1 (G115E) (VHH, as the chain of m1 (VHH Z70); also called Mut1; source: E. coli BL21 (DE3), periplasm, purified (IMAC, SEC)) VHH: EVQLQASGGVFVQSGGSLRLSCAASGATSTFDGMGWFRQAPGKEREFVSAISYEQGSYTYYADSVKGRFTISRDNSKNMVYLQMNSLRAEDTATYYCAPAYEGDLYAFDSYGEQGTQVTVSS"
74.3 ± 0.8 nM,0.0014 s⁻¹,18800 M⁻¹ s⁻¹,"VHH Z70 mutant 14 (VHH, as the chain of m1 (VHH Z70); The text says only that G115E is combined with additional substitutions in mutant 14; also called Mut14; source: E. coli BL21 (DE3), periplasm, purified (IMAC, SEC)) VHH: EVQLQASGGVFVQSGGSLRLSCAASGATSIFDGMGWFRQAPGKEREFVSAISYGQGSYTYYADSVKGRFTISRDNSKNMVYLQMNSLRAEDTATYYCAPAYEGDLYAFDSYGEQGTQVTVSS"
80.5 ± 1.5 nM,0.0021 s⁻¹,26000 M⁻¹ s⁻¹,"VHH Z70 mutant 3 (R47K) (VHH, as the chain of m1 (VHH Z70); also called Mut3; source: E. coli BL21 (DE3), periplasm, purified (IMAC, SEC)) VHH: EVQLQASGGVFVQSGGSLRLSCAASGATSTFDGMGWFRQAPGKEKEFVSAISYEQGSYTYYADSVKGRFTISRDNSKNMVYLQMNSLRAEDTATYYCAPAYEGDLYAFDSYGGQGTQVTVSS"
42.5 ± 0.7 nM,0.00277 s⁻¹,65300 M⁻¹ s⁻¹,"VHH Z70 mutant 15 (R90G + P101S + G114E) (VHH, as the chain of m1 (VHH Z70); also called Mut15; source: E. coli BL21 (DE3), periplasm, purified (IMAC, SEC)) VHH: EVQLQASGGVFVQSGGSLRLSCAASGATSTFDGMGWFRQAPGKEREFVSAISYEQGSYTYYADSVKGRFTISRDNSKNMVYLQMNSLGAEDTATYYCASAYEGDLYAFDSYEGQGTQVTVSS"
41.8 ± 0.7 nM,0.00089 s⁻¹,21300 M⁻¹ s⁻¹,"VHH Z70 mutant 20 (R47K + G115E) (VHH, as the chain of m1 (VHH Z70); Generated by the authors, not found in the screen; also called Mut20; source: E. coli BL21 (DE3), periplasm, purified (IMAC, SEC)) VHH: EVQLQASGGVFVQSGGSLRLSCAASGATSTFDGMGWFRQAPGKEKEFVSAISYEQGSYTYYADSVKGRFTISRDNSKNMVYLQMNSLRAEDTATYYCAPAYEGDLYAFDSYGEQGTQVTVSS"
51.1 ± 0.6 nM,0.00205 s⁻¹,40100 M⁻¹ s⁻¹,"VHH Z70 mutant 9 (P101S + G115E) (VHH, as the chain of m1 (VHH Z70); also called Mut9; source: E. coli BL21 (DE3), periplasm, purified (IMAC, SEC)) VHH: EVQLQASGGVFVQSGGSLRLSCAASGATSTFDGMGWFRQAPGKEREFVSAISYEQGSYTYYADSVKGRFTISRDNSKNMVYLQMNSLRAEDTATYYCASAYEGDLYAFDSYGEQGTQVTVSS"
